Experimental data as given in patent publication US20260102474A1 (published 2026).
Numbering of substitutions follows the chain as printed.

B1: ACE2-M2-FcKO (Fc fusion)
chain: STIEEQAKYFLDYFNVQAEDLFYQSSLASWNYNTNITEENVQNMNNAGDKWSAFLKEQSTYAQRYPLQEIQNLTVKLQLQALQQNGSSVLSEDKSKRLNTILNTMSTIYSTGKVCNPDNPQECLLLEPGLNEIMANSLDYNERLWAWESWRSEVGKQLRPLYEEYVVLKNEMARANHYEDYGDYWRGDYEVNGVDGYDYSRGQLIEDVEHTFEEIKPLYEHLHAYVRAKLMNAYPSYISPIGCLPAHLLGDMWGRFWTNLYSLTVPFGQKPNIDVTDAMVDQAWDAQRIFKEAEKFFVSVGLPNMTQGFWEYSMLTDPGNVQKAVCHPTAWDLGKGDFRILMCTKVTMDDFLTAHREMGRIQYDMAYAAQPFLLRNGANEGFHEAVGEIMSLSAATPKHLKSIGLLSPDFQEDNETEINFLLKQALTIVGTLPFTYMLEKWRWMVFKGEIPKDQWMKKWWEMKREIVGVVEPVPHDETYCDPASLFHVSNDYSFIRYYTRTLYQFQFQEALCQAAKHEGPLHKCDISNSTEAGQKLFNMLRLGKSEPWTLALENVVGAKNMNVRPLLNYFEPLFTWLKDQNKNSFVGWSTDWSPYADQSIKVRISLKSALGDKAYEWNDNEMYLFRSSVAYAMRQYFLKVKNQMILFGEEDVRVANLKPRISFNFFVTAPKNVSDIIPRTEVEKAIRMSRSRINDAFRLNDNSLEFLGIQPTLGPPNQPPVSSGGGGSGGGGSGGGGSEPKSSDKTHTCPPCPAPPVAGPSVFLFPPKPKDTLMISRTPEVTCVVVGVSHEDPEVKFNWYVDGVEVHNAKTKPREEQYNSTYRVVSVLTVLHQDWLNGKEYKCKVSNKQLPSPIEKTISKAKGQPGQPREPQVYTLPPSRDELTKNQVSLTCLVKGFYPSDIAVEWESNGQPENNYKTTPPVLDSDGSFFLYSKLTVDKSRWQQGNVFSCSVMHEALHNHYTQKSLSLSPGK
B2: ACE2-M1-FcKO (Fc fusion)
chain: B1 chain with Y13K, V16H, Q17E, R64M

Tests used:
Test in all cases: competition
[1] = molecular target: SARS-COV-2 full-length trimeric spike protein, Beta (B1.351) (SARS-COV-2)
[2] = molecular target: SARS-COV-2 full-length trimeric spike protein, Delta (B.1.617.2) (SARS-COV-2)
[3] = molecular target: SARS-COV-2 full-length trimeric spike protein, Alpha (B.1.1.7) (SARS-COV-2)
[4] = molecular target: SARS-COV-2 full-length trimeric spike protein, Gamma (P.1) (SARS-COV-2)
[5] = molecular target: Trimeric S-protein corresponding to Omicron (B.1.1.529) (SARS-COV-2)

Binder	IC50 [1]	IC50 [2]	IC50 [3]	IC50 [4]	IC50 [5]
B1	3.9 nM	3.3 nM	4.3 nM	3.6 nM	0.7 nM
B2	3.9 nM	1.8 nM	6.9 nM	3.8 nM	0.5 nM
